Test results published in US20240207432A1 (BIOSION, published 2024).
Where a chain is given by its changes, count along the chain named.

T1: human TROP2-his protein (human, UniProt P09758 27-274)
T1 construct: Biotin-labelled in the ELISAs, unlabelled analyte in Biacore; also called biotin-labeled human TROP2-his protein; biotin human Trop2-his
T1 sequence: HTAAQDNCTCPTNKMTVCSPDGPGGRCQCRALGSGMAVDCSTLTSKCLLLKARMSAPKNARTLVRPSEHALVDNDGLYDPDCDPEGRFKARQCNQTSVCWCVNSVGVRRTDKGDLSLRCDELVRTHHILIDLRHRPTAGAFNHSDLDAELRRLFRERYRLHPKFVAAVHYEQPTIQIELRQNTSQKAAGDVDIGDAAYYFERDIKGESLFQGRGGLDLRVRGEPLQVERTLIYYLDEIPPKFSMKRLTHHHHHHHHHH

T2: cynomolgus TROP2-his protein (cynomolgus monkey, UniProt P09758 27-272 (human entry), limits assumed)
T2 construct: no cleavage site is stated; also called Cynomolgus monkey TROP2-his protein; monkey TROP2
T2 chain: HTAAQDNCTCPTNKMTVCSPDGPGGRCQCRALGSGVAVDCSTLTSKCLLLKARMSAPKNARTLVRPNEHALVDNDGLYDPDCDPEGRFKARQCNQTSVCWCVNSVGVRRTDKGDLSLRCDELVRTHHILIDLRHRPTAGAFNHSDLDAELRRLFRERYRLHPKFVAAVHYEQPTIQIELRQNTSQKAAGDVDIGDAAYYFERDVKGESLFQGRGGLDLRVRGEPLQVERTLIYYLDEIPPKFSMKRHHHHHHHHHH

T3: full length human TROP2 on 293F-TROP2 cells (human, UniProt P09758 27-323)
T3 construct: also called 293F-TROP2 cells (clone ID #3A8); cell surface TROP2
T3 sequence: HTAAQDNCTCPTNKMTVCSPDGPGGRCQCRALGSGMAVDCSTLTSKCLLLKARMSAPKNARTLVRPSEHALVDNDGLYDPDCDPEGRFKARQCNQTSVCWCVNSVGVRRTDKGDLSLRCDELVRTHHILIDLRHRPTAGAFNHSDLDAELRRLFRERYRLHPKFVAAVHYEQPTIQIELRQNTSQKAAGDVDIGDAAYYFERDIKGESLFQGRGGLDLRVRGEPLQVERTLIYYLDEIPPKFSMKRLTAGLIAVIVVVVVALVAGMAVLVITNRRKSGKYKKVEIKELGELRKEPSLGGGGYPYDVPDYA

B1: chimeric C1B3B12D2 (antibody, human IgG1, kappa, V domains shown)
VH: QVQLQQSGPELVRPGTSVKMSCKAAGYTFTKFWIGWVKQRPGHGLEWIGNIYPGGAYINYNENFKGKATLTADTFSSTAYMQLNSLTSADSAIYYCAREGSSGYWGQGTTLTVSS
VL: DIVMTQSPSSLTVTAGEKVTLSCKCSQSLLNSGTQENYLTWYQQKPGQPPKMLIYWASIREPGVPDRFTGSGSGTDFTLTINNVQAEDLAVYYCQHDYSYPFTFGSGTKLEIKR
B2: huA1E4F7D4-V2 (antibody, human IgG1, kappa, V domains shown)
VH: QVQLVQSGAEVKKPGASVKVSCKASGYSFTTHWIHWVRQAPGQGLEWIGTIFPSNAYAVYNQKFRDRATMTADRSISTAYIELSRLRSDDTAVYYCARASYFDYWGQGTTVTVSS
VL: EIVLTQSPATLSLSPGERATLSCRASQNIGTSIHWFQQKPGGSPRLLIKYASESISGIPSRFSGSGSGTDFTLTISSLEPEDFAVYYCQHSHSWPFTFGQGTKLEIKR
notes: Positions of the X residues are printed in CLM-00002, CLM-00003 and CLM-00005; Tested as cell supernatant
B3: huA1E4F7D4-V1 (antibody, human IgG1, kappa, V domains shown)
VH: B2 VH with V37M, R38K, A40R, T69I, S84T
VL: B2 VL with E1D, V3L, L78V
notes: Positions of the X residues are printed in CLM-00003 and CLM-00005; Tested as cell supernatant
B4: huA1E4F7D4-V3 (antibody, human IgG1, kappa, V domains shown)
VH: B2 VH with S28T
VL: B2 VL
notes: Positions of the X residues are given in the claims; Tested as cell supernatant
B5: huA1E4F7D4-V4 (antibody, human IgG1, kappa, V domains shown)
VH: B2 VH with A68V
VL: B2 VL
notes: as for B4
B6: huA1E4F7D4-V5 (antibody, human IgG1, kappa, V domains shown)
VH: B2 VH with A72R
VL: B2 VL
notes: as for B4
B7: huA1E4F7D4-V6 (antibody, human IgG1, kappa, V domains shown)
VH: B2 VH with R74T
VL: B2 VL
notes: as for B4
B8: huA1E4F7D4-V7 (antibody, human IgG1, kappa, V domains shown)
VH: B2 VH
VL: B2 VL with G42Q
notes: as for B4
B9: huA1E4F7D4-V8 (antibody, human IgG1, kappa, V domains shown)
VH: B2 VH with S28T
VL: B2 VL with G42Q
notes: as for B4
B10: huA1E4F7D4-V9 (antibody, human IgG1, kappa, V domains shown)
VH: B2 VH with A68V
VL: B2 VL with G42Q
notes: as for B4
B11: huA1E4F7D4-V10 (antibody, human IgG1, kappa, V domains shown)
VH: B2 VH with A72R
VL: B2 VL with G42Q
notes: as for B4
B12: huA1E4F7D4-V11 (antibody, human IgG1, kappa, V domains shown)
VH: B2 VH with R74T
VL: B2 VL with G42Q
notes: as for B4
B13: huA1E4F7D4-V12 (antibody, human IgG1, kappa, V domains shown)
VH: B2 VH
VL: B2 VL with S43A
notes: as for B4
B14: huA1E4F7D4-V13 (antibody, human IgG1, kappa, V domains shown)
VH: B2 VH with S28T
VL: B2 VL with S43A
notes: as for B4
B15: huA1E4F7D4-V14 (antibody, human IgG1, kappa, V domains shown)
VH: B2 VH with A68V
VL: B2 VL with S43A
notes: as for B4
B16: huA1E4F7D4-V15 (antibody, human IgG1, kappa, V domains shown)
VH: B2 VH with A72R
VL: B2 VL with S43A
notes: as for B4
B17: huA1E4F7D4-V17 (antibody, human IgG1, kappa, V domains shown)
VH: B2 VH
VL: B2 VL with K49Y
notes: as for B4
B18: huA1E4F7D4-V18 (antibody, human IgG1, kappa, V domains shown)
VH: B2 VH with S28T
VL: B2 VL with K49Y
notes: as for B4
B19: huA1E4F7D4-V19 (antibody, human IgG1, kappa, V domains shown)
VH: B2 VH with A68V
VL: B2 VL with K49Y
notes: as for B4
B20: huA1E4F7D4-V20 (antibody, human IgG1, kappa, V domains shown)
VH: B2 VH with A72R
VL: B2 VL with K49Y
notes: as for B4
B21: huA1E4F7D4-V21 (antibody, human IgG1, kappa, V domains shown)
VH: B2 VH with R74T
VL: B2 VL with K49Y
notes: as for B4

How the values were obtained:
human TROP2-his protein [1] = target: T1, human TROP2-his protein; test: SPR Biacore, antibody captured on anti-human IgG CM5 chip, TROP2-his analyte
Experimental: Un-reacted moieties on the chip (biosensor) surface were blocked with ethanolamine. […] The antigen-antibody association kinetics was followed for 2 minutes and the dissociation kinetics was followed for 10 minutes. The association and dissociation curves were fit to a 1:1 Langmuir binding model using BIAcore evaluation software.

human TROP2-his protein [2] = target: T1, human TROP2-his protein; test: capture ELISA, antibody captured on anti-human IgG Fc coat, biotin human TROP2-his in solution, OD(450-630)
Experimental: Plates were washed once with wash buffer (PBS+0.05% v/v Tween-20, PBST) and then blocked with 200 μl/well blocking buffer (5% w/v non-fatty milk in PBST) for 2 hours at 37° C. […] Plates containing captured anti-TROP2 antibodies were incubated with biotin-labeled human TROP2-his protein (prepared in house, SEQ ID NO: 67, 56.7 ng/mL in 2.5% w/v non-fatty milk in PBST, 100 μl/well) for 40 minutes at 37° C., washed 4 times, and incubated with streptavidin conjugated HRP (1:10000 dilution in PBST, Jackson Immuno Research, Cat #016-030-084, 100 μl/well) for 40 minutes at 37° C. After a final wash, plates were incubated with 100 μl/well ELISA substrate TMB (Innoreagents, Cat #TMB-S-002) at room temperature. The reaction was stopped in 3-10 minutes at room temperature with 50 μl/well 1M H₂SO₄, and the absorbance of each well was read on a microplate reader using dual wavelength mode with 450 nm for TMB and 630 nm as the reference wavelength. The OD (450-630) values were plotted against antibody concentration. Data was analyzed using Graphpad Prism software and EC₅₀ values were reported.
For the capture ELISA, AffiniPure Goat Anti-Human IgG, Fcγ fragment specific (Jackson Immuno Research, Cat #109-005-098) was used instead of AffiniPure Goat Anti-Mouse IgG, Fcγ fragment specific, 100 μl/well.

[3] = target: T2, cynomolgus TROP2-his protein; test: indirect ELISA, cynomolgus TROP2-his coated, OD(450-630)
[4] = target: T3, full length human TROP2 on 293F-TROP2 …; test: FACS on 293F-TROP2 cells, MFI
human TROP2-his protein [5] = target: T1, human TROP2-his protein; test: SPR Biacore T200, supernatant antibody captured on anti-human IgG CM5 chip, 40 nM human TROP2-his
Experimental: The goat anti-human IgG (GE healthcare, Cat #BR100839, Human Antibody Capture Kit) was covalently linked to a CM5 chip instead of goat anti-mouse IgG. […] The human TROP2-his protein at the concentration of 40 nM was used instead of serially diluted human TROP2-his protein.

Binder	Kd (human TROP2-his protein [5]) [nM]	koff (human TROP2-his protein [5]) [s⁻¹]	kon (human TROP2-his protein [5]) [M⁻¹ s⁻¹]	also measured
B1	–	–	–	Kd (human TROP2-his protein [1]): 0.125 nM; koff (human TROP2-his protein [1]): 9.54e-05 s⁻¹; kon (human TROP2-his protein [1]): 763000 M⁻¹ s⁻¹; EC50 (human TROP2-his protein [2]): 0.111 nM; EC50 [3]: 0.26 nM; EC50 [4]: 0.81 nM
B2	0.215	0.000188	874000	–
B3	0.238	0.000197	830000	–
B4	0.238	0.000199	836000	–
B5	0.215	0.00019	883000	–
B6	0.353	0.000204	577000	–
B7	0.166	0.000179	1.08e+06	–
B8	0.216	0.000192	887000	–
B9	0.235	0.000195	832000	–
B10	0.223	0.000193	865000	–
B11	0.314	0.000206	656000	–
B12	0.163	0.000175	1.08e+06	–
B13	0.211	0.000192	909000	–
B14	0.221	0.000199	898000	–
B15	0.232	0.000193	834000	–
B16	0.359	0.000205	571000	–
B17	0.232	0.000279	1.2e+06	–
B18	0.23	0.00028	1.22e+06	–
B19	0.261	0.000304	1.16e+06	–
B20	0.335	0.00029	868000	–
B21	0.188	0.000271	1.44e+06	–
